Results as given in the supplement of paper PMC9170038.

Tested on: K4 kissing-loop RNA reporter
Test: apparent KD of K4 kissing-loop reporter; higher = weaker reporter binding
Settings: Eterna round: R107
Method: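 RNA-MaP round R107: designed RNA switches with theophylline, tryptophan, arginine or FMN aptamers are transcribed on-chip within common flanks. They are titrated with a labelled K4 kissing-loop RNA reporter in RNA-MaP buffer (100 mM Tris pH 7.5, 80 mM KCl, 4 mM MgCl2), without ligand or with the indicated ligand. Median apparent KD per design.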

[1] = input ligand: theophylline 20 uM
[2] = input ligand: tryptophan 2.4 mM
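Also: bound reporter read as fluorescence of individual clusters on recovered sequencing chips by microscopy, with normalized cluster intensities fitted with a binding model.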

| Sequence | apparent KD of K4 kissing-loop reporter (input ligand: FMN 200 uM) [nM] | apparent KD of K4 kissing-loop reporter (input ligand: arginine 13.2 mM) [nM] | apparent KD of K4 kissing-loop reporter (input ligand: none) [nM] | apparent KD of K4 kissing-loop reporter [1] [nM] | apparent KD of K4 kissing-loop reporter [2] [nM] |
| --- | --- | --- | --- | --- | --- |
| AAACAUUGGUCUGAUACCAGCUGAUCGGAAACGAUCUUGCUGGAGUGAUGUUCCAAGUAAAGCCCUUGGCAGCAGACCGAUGAAA [MAT - Same State Theophlline B - Mod of Eli - D19] | 108 | 53.3 | 72.6 | 107 | 81.8 |
| CGGCUUAGUAGCGCGAGUUGACGUGCCAUCCGAGGACCGGUACGGCCGCCACUCGUGAUCUGUUAAAGUGAUGUUUUAAUGCCAU | 722 | 602 | 712 | 711 | 639 |
| UAAUUUAUGUCUUUAAUAUAAUAAUCAGAUACCAGUGAUUUAUGACACCCUUGGCAGCUGUAUAGAGUGAUGUUCUUAUGCUUAA [JR_ExcTheophyA_Sub011] | 247 | 324 | 278 | 375 | 179 |
| UGAUACCAGACGGCCGCCACUCCCGUAAGUCAAAGACUUACGAAGAGGGUUUUUUAGUGAUGUUGGAGGACCGGGUCUGGUAUCU [FiskerMod 18 - Jieux - Exclusion - Tryptophan B] | 618 | 256 | 618 | 653 | 2320 |
| CUUGGGCUUGCGGCCGCCACUCAAACAUCAUUAAGGAUGGUCCACGGGCAAGUGAUGUUUAUCCGGAGGACCGGGCAUAGCGACA [theeternabot_exclusion_KL_Trp_B_23] | 337 | 270 | 315 | 315 | 342 |
| UGACUGGACUGAAGGAGCGCUUAACUCCUAGUGAUGUUAGGACAACGAGACAAAGUCUCGAAGCAGGUAGGUCGCAGUCUAGUCU | 217 | 155 | 204 | 198 | 199 |
| AAGGGCUAGGCGGCCGCCACUGGUCGUGUACACAUACGAACCAGUGAUGUUGGUAUUGUAUGCGGCAGGACCGGGCCUAGCCGAA [Exclusion - Tryptophan B (Freestyle 26)] | 415 | 447 | 448 | 614 | 405 |
| AUUUUUUUGUCAGGAUAUUAGUAUGCAUUUAGUUUGUUAGUGAUGUUGAUAUUUUGUUUAUGUAUUUAAGAAGGGAUUUAGCGGU [iiikmullin] | 384 | 217 | 335 | 340 | 306 |
| GGGAGCAAAGCUCCCGGAUGCUAUAGUCAGGAGGAUAUCUGGAAACAGAGAAGGCCUAAGCCAGUGAUGUUGGCUAUAAGCAUCC | 475 | 406 | 757 | 629 | 589 |
| CCGACUGCAGGAAGGAGCGGCGGUUGGAGUGAUGUUCCAGGUAGUGAUGUUACCAAGAUCCGCCAGGUAGGUCGCCUGUUGCUCA [Same State Arginie B GF 12] | 156 | 106 | 115 | 148 | 125 |
| UGUACCGAGUCAGGAUAUGUCGUCGAAAGACGAAUCCUAGUGAUGUUAGGGAUCUGCGAAAGCAGUGCAGAAGGGACUUGGUACU [FmnBS 26 U20+G67] | 235 | 182 | 216 | 226 | 207 |
| AAAUAGAUCAGUCACCCAGUGAUGUUGGAAGGAGCGUGCGAAAGCACAGGUAGGUCGCCAGAAUAAAAUUGGCUGAUCAAAAUAA | 260 | 337 | 212 | 393 | 149 |
| AUGUACACGAUAGUGUACUCCUAGUGAUGUUAGGAUAUGCAGAUAUGCAGAAGGAACAAGUCAUCUGACAAUAGUCGGAUGACAA [FmnAX 9 #OpenEnded #K4Early] | 388 | 92.5 | 119 | 125 | 94.1 |
| GCGAACAUUCGCAGUGAUGUUGCGACGGAAGGAGCGCGUGAAAACGCAGGUAGGUCGCCGACAUACUUAAUUUUACAGUGUUCGC [Arginine A K4 29] | 268 | 191 | 294 | 247 | 194 |
| AGCUCAGAGUGACUCGAUAAGAGUCACAAACGAGGACCGGUACGGCCGCCACUCGAAAUAACGAGAGUGAUGUUCUUGCUGAGCA [FiskerMod 7 - Jieux - Same State Tryptophan A] | 1320 | 487 | 976 | 631 | 386 |
| AUUAAUUUCAGAGGAUAUCGUGAUUUUAUUUAAUUUAUUCAUUUGUGCAGUGAUGUUGCUAAUAUUCGAGAAGGCUGAUUUAUAA [whbob_Ex_FMNB__2th224] | 107 | 109 | 46.2 | 110 | 44.9 |
| GAGAUAGAGGCGGCCGCCACUAGUGAUGUUAGUGAUGUUAGAUAGAGAAUAGAACAGAGGUAGGAUAGGACCGGGCCAGAUAGAG [whbob_SS_Tryp_B_w31] | 90.6 | 65.3 | 62.4 | 77 | 83.7 |
| UGUACCGAGUCAGGAUAUCAUAAAGUUGGAGUGAUGUUCCAAUAACGACUGACAAAGUCGGUCGAUUGAGAAGGGACUUGGUACU [FmnBS 9 #SwitchBubble #StaticStem] | 160 | 139 | 141 | 143 | 151 |
| UGAUAGGACAGAAGGAGCGGUAGUGAUGUUACCAAAAGGUUAAGGUGUCAAAAGACACCCUGCCAGGUAGGUCGCUGUCCUAUCU | 117 | 98 | 106 | 89.9 | 83.4 |
| AGCUAGUACGCAGGAUAUCGAACAUCAUUUAGUGAGAUCGAGUGAUGUUCGAUCACGUCUUCAGUUCGAGAAGGGCGUACUAGCA [#01 K4 FMN B Same State] | 349 | 423 | 1090 | 1220 | 777 |
| AUAUUGGUUGAGAGUGAUGUUCCUUGUGUUCGAGGACCGGUACGGCCGCCACUCGGGUAGAAAAUAAAAGAUAUGUUUGAUUUUU [BDazzled - #12 SS Tryptophan A] | 162 | 29.1 | 242 | 943 | 279 |
| UAUAUAUGAUGUGAUACCAGUGAAAAGCCAGUGAUGUUGGUAGAACUGGUAUAUAAAUGGCACCCUUGGCAGCACAAUCACGUAU [#28 K4 Theophylline B Exclusion] | 119 | 108 | 114 | 120 | 117 |

| Sequence | apparent KD of K4 kissing-loop reporter (input ligand: FMN 200 uM) [nM] | apparent KD of K4 kissing-loop reporter (input ligand: arginine 13.2 mM) [nM] | apparent KD of K4 kissing-loop reporter (input ligand: none) [nM] | apparent KD of K4 kissing-loop reporter [1] [nM] | apparent KD of K4 kissing-loop reporter [2] [nM] |
| --- | --- | --- | --- | --- | --- |
| UAACAGGCCCUCACCGUCUUAUUUACAGACCGAGGACCGGUACGGCCGCCACUCGUGAAGUGAUGUUUCAAACAAGCGGUAGGAU | 721 | 467 | 685 | 480 | 328 |
| AAAUAGAUCAGUCAUCCAGUGAUGUUGGAAGGAGCGUGCGAAAGCACAGGUAGGUCGCCAAAAUAAAACUGGCUGAUCAAAAUAA | 292 | 292 | 338 | 453 | 270 |
| AAAAUAAGCCAGUGAUGUUGGUAUACAGAUACCAGCGACGAAAGUCGCCCUUGGCAGCUGUGGACGUACAAAAUAAGUACGUCCU | 364 | 278 | 417 | 780 | 364 |
| AUAUUUAUUUAGUCACUUUUAAUAUUAUGUCAGGAUAUCGUAAUUUCGAGAAGGGACUCAUGCUAGUGAUGUUAGCUAAUUCUCA [JR_Nu3_ExcFMNA_Sub023] | 102 | 161 | 135 | 160 | 110 |
| GGUAGCAUGGCGGCCGCCACUCUUCAUUAGUGAUGUUAAUGCCGAGUGCGCUAACUCCAACAGGAGAGGACCGGGCCAUGCUACC | 532 | 445 | 501 | 760 | 98.8 |
| ACGAAGGAUGGAAGGAGCGCUCGUCAGUCCUGCGAGUGAUGUUCGUGGGUAAAUAUUCGCGAGCAGGUAGGUCGCCAUCUUGAGC [Soregeor] | 144 | 115 | 144 | 134 | 129 |
| UUAAUUCCGGUGGUGUGUAGAACACAGUUACGAGGACCGGUACGGCCGCCACUCGGAUGCACUUUCAGUGAUGUUGAAAGCAUCA [Same State Tryptophan A GF 1] | 670 | 514 | 643 | 498 | 690 |
| GCGCGGGAGUGAUGUUCCAAGUGGUGUUAACGAGGACCGGUACGGCCGCCACUCGAUACGGCCGGGCCGUAGGAUAAACUGGCGC [Same State - Tryptophan A (Freestyle 14)] | 405 | 376 | 441 | 318 | 408 |
| AAAACUAUCAGAAGGAGCGUGGAAUAUUCAUCUGUAUUUAAUACGAGUGAUGUUCGUAAUUCACAGGUAGGUCGCUGAUCAAUAA [whbob_Ex_Arginine_B_2th154] | 269 | 253 | 306 | 305 | 254 |
| GUAUCGCUAGGAGGAUAUUCCGUUUUUCAUAGAAAUGGCUAUGCGGAGUGAUGUUCCGAUUUACCGGAAGAAGGCCUAGUGAUAC [FMN B 23] | 106 | 132 | 149 | 142 | 142 |
| UUCAGGUGUUCGGCCGCCACUCCAGUGAUGUUGGAGUGGCUUCACAAGGGCCAGGACAAUGUAGGGAGGACCGGGAAUAUCGCAG [Atvebeance] | 143 | 117 | 129 | 107 | 125 |
| CGGGUACGUCAAGGAUAUAGGCAUGACGUAGUGCAGUGAUGUUGCUCGAGUCUCUUCAACUGAGGACUAGAAGGUGAUCGUAACA [theeternabot_sameState_KL_FMN_B_15] | 491 | 351 | 631 | 644 | 344 |
| AAGCAGUCACUCGAAGCCAUCGAAGAUGGACGAGGACCGGUACGGCCGCCACUCGGAGUGAUGUUCCGAAGACUGCAAAAUAAAA | 312 | 274 | 296 | 330 | 469 |
| CGAUGGAUGGCAGGAUAUAGACAUUGAGUGAUGUUCGAUGAUUAUCCAUAUUCCCGUCACCUAUGACUAGAAGGGCCAUCCAUCG | 236 | 485 | 464 | 587 | 577 |
| ACUUGAGCACAAAGCACACCAAGCAGUAGGUAGGAUAUCCGGCUUAGGAGAAGGACCAUGCAGUGAUGUUGCAUGCUCCUCCAUG [Onraordi] | 267 | 94.7 | 101 | 102 | 93 |
| AAUCAAUACAGAAGGAGCGUGACAAUUACUAUUGAAUUAGGUGCUAGUGAUGUUAGCAUUACACAGGUAGGUCGCUGUACAUUUA [JR_SSArginiB_Sub011] | 81.4 | 85.5 | 87.5 | 89 | 78.3 |
| UGGAGUUGACGAAAAGUCAACUCCUGAGAUACCAGUGACGAAAGUCACCCUUGGCAGCUCACUGCCAGUGAUGUUGGAAAUAAAA [#01 K4 Theophylline A Same State] | 346 | 182 | 224 | 337 | 217 |
| ACACGGAGAGGCAUAACGUGCAUCUUCAGCGAGGAUAUCCAUUACAGGAGAAGGCGCUCCGGAGUGAUGUUCCGGCAAAAGAUAC [Quatatte] | 83.5 | 151 | 102 | 146 | 91.5 |
| CGUAGCAGACGAAGGAGCGGCUACCUGAAUCAGGGUGAUGCCUGAGUGAUGUUCAGGUAAAGCCAGGUAGGUCGCGUCUGCUACG [Arg B Ex t9a] | 201 | 203 | 232 | 235 | 210 |
| CGCUGGGCGAGUGAUGUUCGCUCACGUGAUACCAGUGCCAUCCAACACCCUUGGCAGCACGCGGGCAGUGAUGUUGUCCUUGUGG [Exclusion Theophylline A GF7] | 284 | 241 | 285 | 269 | 268 |
| AUAACAAUCUGAAGGAGCGAGAAAGCAGUGAUGUUGCAAAGGCGAGUGAUGUUCGCAAUAACUCAGGUAGGUCGCAGAAACAAGA [Same State Arginine B] | 142 | 142 | 187 | 193 | 119 |
